Data on 94 variants can be found in publication PMC12102759.

B1: ATXN2 peptide 913-928 (Ataxin-2), 16-mer library wild type / PABPC1 PABC (PABPC1 PABC domain, residues 544-623) (parent)
chain 1: TLNPNAKEFNPRSFSQ
chain 2: PLTASMLASAPPQEQKQMLGERLFPLIQAMHPTLAGKITGMLLEIDNSELLHMLESPESLRSKVDEAVAVLQAHQAKEAA
B2: MXI1 peptide 4-19 (Max-interacting protein 1), 16-mer library wild type / SIN3A PAH2 (SIN3A PAH domain, residues 295-383) (parent)
chain 1: VKMINVQRLLEAAEFL
chain 2: SLQNNQPVEFNHAINYVNKIKNRFQGQPDIYKAFLEILHTYQKEQRNAKEAGGNYTPALTEQEVYAQVARLFKNQEDLLSEFGQFLPDA

One experiment covers variants of B1. In words: proteomic peptide phage display deep mutational scan (ProP-PD DMS): M13 P8 16-mer library selected against immobilised GST-tagged bait for four days (rounds), NGS of the eluted pools per day and pseudo-replica. To be noted: with PABPC1 PABC (PABPC1 PABC domain, residues 544-623); bait immobilised on MaxiSorp plates (10 µg), library pre-cleared on GST, 2 h binding at 4 °C, five washes; one round per day, days 1-4; value from days 2 and 3; scale: average fractional NGS count over selection days 2 and 3.
With chain 1 TLIPNAKEFNPRSFSQ [chain 1 N3I], the screen value was 0.
Still for that read-out and setting: next, chain 1 TLAPNAKEFNPRSFSQ [chain 1 N3A]: 0; chain 1 TLKPNAKEFNPRSFSQ [chain 1 N3K]: 0.
Same read-out and setting: next, chain 1 TLHPNAKEFNPRSFSQ [chain 1 N3H]: 0; chain 1 TLPPNAKEFNPRSFSQ [chain 1 N3P]: 0; chain 1 TLTPNAKEFNPRSFSQ [chain 1 N3T]: 8.32e-05.
The same measure, in the same setting: next, chain 1 TLNPNAKEFNPRSFYQ [chain 1 S15Y]: 0.000175; chain 1 TLNPNAKEFNPRSFLQ [chain 1 S15L]: 6.16e-05.
Regarding chain 1 TLNPNAKEFNPRSFKQ [chain 1 S15K], the screen value was 0.00027.
The same measure, in the same setting: next, chain 1 TLNPNAKEFNPRSFTQ [chain 1 S15T]: 2.11e-05; chain 1 TLNPNAKEFNPRSFNQ [chain 1 S15N]: 0.000264; chain 1 TLNPNAKEFNPRSTSQ [chain 1 F14T]: 0.000127.
Turning to chain 1 TLNPNAKEFNPRSSSQ [chain 1 F14S], the screen value amounted to 8.48e-05.
For chain 1 TLNPNAKEFNPRSDSQ [chain 1 F14D], the screen value was determined as 0.000335.
Same read-out and setting: next, chain 1 TLNPNIKEFNPRSFSQ [chain 1 A6I]: 0.000105; chain 1 TLNPNPKEFNPRSFSQ [chain 1 A6P]: 0.
The same measure, in the same setting: next, chain 1 TDNPNAKEFNPRSFSQ [chain 1 L2D]: 0.
Still for that read-out and setting: next, chain 1 TLNPNAKEFNIRSFSQ [chain 1 P11I]: 9.64e-06; chain 1 TLNPPAKEFNPRSFSQ [chain 1 N5P]: 1.03e-05.
Consider chain 1 TLNPYAKEFNPRSFSQ [chain 1 N5Y], for which the screen value turned out to be 0.000372.
In the case of chain 1 TLNPSAKEFNPRSFSQ [chain 1 N5S], the screen value was 0.000305.
Regarding chain 1 TLNPWAKEFNPRSFSQ [chain 1 N5W], the screen value came out at 0.000157.
The same measure, in the same setting: next, chain 1 SLNPNAKEFNPRSFSQ [chain 1 T1S]: 0.000147.
On the same count and under the same terms, next, chain 1 WLNPNAKEFNPRSFSQ [chain 1 T1W]: 4.71e-05; chain 1 ELNPNAKEFNPRSFSQ [chain 1 T1E]: 0.000115.
Still for that read-out and setting: next, chain 1 QLNPNAKEFNPRSFSQ [chain 1 T1Q]: 0.000237.
Regarding chain 1 TLNPNAKIFNPRSFSQ [chain 1 E8I], the screen value came to 0.000142.
On the same count and under the same terms, next, chain 1 TLNPNAKLFNPRSFSQ [chain 1 E8L]: 0; chain 1 TLNPNAKDFNPRSFSQ [chain 1 E8D]: 0; chain 1 TLNSNAKEFNPRSFSQ [chain 1 P4S]: 0.000147.
Turning to chain 1 TLNQNAKEFNPRSFSQ [chain 1 P4Q], the screen value was found to be 0.000331.
As for chain 1 TLNFNAKEFNPRSFSQ [chain 1 P4F], the screen value is 0.000109.
The same measure, in the same setting: next, chain 1 TLNENAKEFNPRSFSQ [chain 1 P4E]: 1.57e-05.
Same read-out and setting: next, chain 1 TLNWNAKEFNPRSFSQ [chain 1 P4W]: 0.
Take chain 1 TLNYNAKEFNPRSFSQ [chain 1 P4Y]: the screen value was determined as 0.
Still for that read-out and setting: next, chain 1 TLNANAKEFNPRSFSQ [chain 1 P4A]: 0.000191.
On the same count and under the same terms, next, chain 1 TLNPNAKEYNPRSFSQ [chain 1 F9Y]: 0.000112; chain 1 TLNPNAKEANPRSFSQ [chain 1 F9A]: 0; chain 1 TLNPNAKEQNPRSFSQ [chain 1 F9Q]: 0.
Turning to chain 1 TLNPNAKEGNPRSFSQ [chain 1 F9G], the screen value is 0.
On the same count and under the same terms, next, chain 1 TLNPNAKEFVPRSFSQ [chain 1 N10V]: 1.03e-05.
In the case of chain 1 TLNPNAKEFGPRSFSQ [chain 1 N10G], the screen value was determined as 0.000262.
Still for that read-out and setting: next, chain 1 TLNPNAKEFEPRSFSQ [chain 1 N10E]: 2.66e-05; chain 1 TLNPNAKEFKPRSFSQ [chain 1 N10K]: 0.000142.
Regarding chain 1 TLNPNAMEFNPRSFSQ [chain 1 K7M], the screen value came out at 3.88e-05.
Still for that read-out and setting: next, chain 1 TLNPNAEEFNPRSFSQ [chain 1 K7E]: 0.000169; chain 1 TLNPNAREFNPRSFSQ [chain 1 K7R]: 0.000217; chain 1 TLNPNAKEFNPRKFSQ [chain 1 S13K]: 0.000149.
The same measure, in the same setting: next, chain 1 TLNPNAKEFNPRVFSQ [chain 1 S13V]: 0.000423.
The same measure, in the same setting: next, chain 1 TLNPNAKEFNPRHFSQ [chain 1 S13H]: 0.00026; chain 1 TLNPNAKEFNPRFFSQ [chain 1 S13F]: 7.96e-05; chain 1 TLNPNAKEFNPRIFSQ [chain 1 S13I]: 0.
Take chain 1 TLNPNAKEFNPREFSQ [chain 1 S13E]: the screen value was found to be 0.000117.
Same read-out and setting: next, chain 1 TLNPNAKEFNPRMFSQ [chain 1 S13M]: 0.000163.

The variants in the next experiment derive from B2. The experiment is described as above. The conditions noted are these: with SIN3A PAH2 (SIN3A PAH domain, residues 295-383); bait immobilised on MaxiSorp plates (10 µg), library pre-cleared on GST, 2 h binding at 4 °C, five washes; one round per day, days 1-4; value from days 2 and 3; keep out of graded; scale: average fractional NGS count over selection days 2 and 3.
Take chain 1 VKMINIQRLLEAAEFL [chain 1 V6I]: the screen value was found to be 0.000142.
As to chain 1 VKMINMQRLLEAAEFL [chain 1 V6M], the screen value was found to be 0.000299.
For chain 1 VKMINTQRLLEAAEFL [chain 1 V6T], the screen value turned out to be 0.
As to chain 1 VKMINYQRLLEAAEFL [chain 1 V6Y], the screen value was found to be 0.000458.
Same read-out and setting: next, chain 1 VKMINQQRLLEAAEFL [chain 1 V6Q]: 2.36e-05.
With chain 1 VKMINSQRLLEAAEFL [chain 1 V6S], the screen value came out at 0.
On the same count and under the same terms, next, chain 1 VKMINVQRLLEAAEHL [chain 1 F15H]: 2.84e-05; chain 1 VKMINVQRLLEAAERL [chain 1 F15R]: 3.85e-05; chain 1 VKMINVQRLLEAAEIL [chain 1 F15I]: 0.
On the same count and under the same terms, next, chain 1 VKMINVQRLLEAAEYL [chain 1 F15Y]: 0.00011; chain 1 VKMINVQRLLEAAEAL [chain 1 F15A]: 0.00102; chain 1 VKMINVQRLLEAAESL [chain 1 F15S]: 4.3e-05.
As for chain 1 VKMINVQRLLEAAETL [chain 1 F15T], the screen value stood at 9.49e-05.
The same measure, in the same setting: next, chain 1 VKMINVQRLLEAAEVL [chain 1 F15V]: 2.36e-05; chain 1 VKMINVQRLLEAAEWL [chain 1 F15W]: 0.000134; chain 1 VKMINVQRLLEAAEGL [chain 1 F15G]: 4.24e-05.
On the same count and under the same terms, next, chain 1 VKMINVQRLWEAAEFL [chain 1 L10W]: 3.85e-05.
On the same count and under the same terms, next, chain 1 VKMINVQRLVEAAEFL [chain 1 L10V]: 0.
Turning to chain 1 VKMINVQRLTEAAEFL [chain 1 L10T], the screen value was found to be 0.000112.
Still for that read-out and setting: next, chain 1 VKMINVQRLAEAAEFL [chain 1 L10A]: 0; chain 1 VKMINVQRLLEAMEFL [chain 1 A13M]: 8.44e-05; chain 1 VKMINVQRLLEAGEFL [chain 1 A13G]: 3.3e-05.
Still for that read-out and setting: next, chain 1 VKMINVQRLLEADEFL [chain 1 A13D]: 2.4e-05; chain 1 VKMINVQRLLEAKEFL [chain 1 A13K]: 0.
The same measure, in the same setting: next, chain 1 VKMINVQRLLEAHEFL [chain 1 A13H]: 0.000246; chain 1 VKMINVQRLLEAIEFL [chain 1 A13I]: 0.000995; chain 1 VKMINVQRLLEAFEFL [chain 1 A13F]: 0.00117.
For chain 1 VKMINVGRLLEAAEFL [chain 1 Q7G], the screen value worked out at 0.
chain 1 VKMINVERLLEAAEFL [chain 1 Q7E]: the screen value amounted to 0.
Turning to chain 1 VKMINVMRLLEAAEFL [chain 1 Q7M], the screen value worked out at 0.
Still for that read-out and setting: next, chain 1 VKMINVSRLLEAAEFL [chain 1 Q7S]: 0.000125.
Regarding chain 1 VKMINVTRLLEAAEFL [chain 1 Q7T], the screen value stood at 0.000284.
Same read-out and setting: next, chain 1 VKMINVLRLLEAAEFL [chain 1 Q7L]: 0.000431; chain 1 VKMINVVRLLEAAEFL [chain 1 Q7V]: 0.00118.
On the same count and under the same terms, next, chain 1 VKMINVWRLLEAAEFL [chain 1 Q7W]: 0.00193; chain 1 VKMINVPRLLEAAEFL [chain 1 Q7P]: 0.
The same measure, in the same setting: next, chain 1 VKMINVQRTLEAAEFL [chain 1 L9T]: 0.
In the case of chain 1 VKMINVQRNLEAAEFL [chain 1 L9N], the screen value is 0.
Still for that read-out and setting: next, chain 1 VKMINVQRILEAAEFL [chain 1 L9I]: 0.00165.
On the same count and under the same terms, next, chain 1 VKMINVQRMLEAAEFL [chain 1 L9M]: 0.
